Measurements: PMC4501363

Biological target: actin-related protein 1 (human (endogenous in HEK293T)) (UniProt P61163)
Assay: co-sedimentation

Substance: actin-related protein 1 (from UniProt P61163 1-376) (natural protein)
- percent of Arp1 in the monomer/dimer pool: < 5%
